B1: Hammerhead Ribozyme (parent)
chain: ACCGGAUGUGCUUUCCGGUCUGAUGAGUCCGUGAGGACGAAACAG

Variants of: B1
Assay: self-cleavage, relative activity (ratio to wild type); higher = more cleavage; co-transcriptional

Variant | self-cleavage
ACCGGUUGUGCUUUCCGGUCUCAUGAGUCCGUGAGGACGAAACAG | 0.354
ACGGGAUGUGCUUUCCGGUCGGAUGAGUCCGUGAGGACGAAACAG | 0.298
ACCGGAUGUGCUUUCCGGUCUGAUGAGUACGUGAGGACGCAACAG | 0.354
ACCGGGUGUGCUUUCCGGUCUGAUGAGUCCGUGAGGACGAAAAAG | 0.217
ACGGGAUGUACUUUCCGGUCUGAUGAGUCCGUGAGGACGAAACAG | 0.771
ACCGGAUGUGCUUUCCCGUCUGAUGAGUCCGUGAGGACUAAACAG | 0.33
ACCGGAGGUGCUUUCCGGUCUGAUGAGUGCGUGAGGACGAAACAG | 0.488
ACCGGAUGUGCUUUCCGGUUUGAUGAGUCCGAGAGGACGAAACAG | 0.506
ACCGCAUGUGCGUUCCGGUCUGAUGAGUCCGUGAGGACGAAACAG | 0.773
CCCGGAUGUGCUUUACGGUCUGAUGAGUCCGUGAGGACGAAACAG | 0.497
ACCGGAUGUGCUUUCCGGUCUGAUGAGUCCGUGAGUCCGAAACAG | 0.331
ACCGGAGGUGCUUUCCGAUCUGAUGAGUCCGUGAGGACGAAACAG | 0.807
CCCGGAUGUGCUUUCCGGUAUGAUGAGUCCGUGAGGACGAAACAG | 0.349
ACCGGAUGUGCUAUCCGGUCUGAUGAGUCCGUGAGGACGGAACAG | 0.287
ACCGGAUGUGCUUUCGGGUCCGAUGAGUCCGUGAGGACGAAACAG | 0.354
AGCGGAUGUGCUUUCCGGUCUCAUGAGUCCGUGAGGACGAAACAG | 0.296
ACCGGAUGUGCUCUCCGGUCUGAUGAAUCCGUGAGGACGAAACAG | 1.09
ACCGGAUAUUCUUUCCGGUCUGAUGAGUCCGUGAGGACGAAACAG | 1.31
ACCGGAUGUGCUUUCCGGUCUGAUGAGCCCGUGAGAACGAAACAG | 0.634

Variant | self-cleavage
ACCGGAUGUGCUUUCAGGUCUAAUGAGUCCGUGAGGACGAAACAG | 0.299
ACCGGAUGUGCUUUCCGGUCUGAUGAGUCCGUUAGGACGAAACAA | 0.698
ACCGGAUGUGCUUUCCGGUCUGAUGGGUCCGUGAGGACGAACCAG | 0.231
ACCGGAUGUGCUUUCGGGUCUGAUGAGUCCGUGACGACGAAACAG | 0.44
ACCGGAUGUUCUUUCCGGUAUGAUGAGUCCGUGAGGACGAAACAG | 0.42
ACCGGAUGUCCUUUCCGGUCUGAUGAGUCUGUGAGGACGAAACAG | 1.28
ACCGGAGGUGCUUUCCGGUCUGAUGAGUCCGUGAGGAAGAAACAG | 0.502
ACCGGAUGUGCUUUCCGGUCUGAUCAGUCGGUGAGGACGAAACAG | 0.221
AGCGGAUGUGCUUUCCGGUCUGAUGAGUCCGUGCGGACGAAACAG | 0.352
ACCGGAUGUGCUUUCCGGUCUGAUGAGUCCAUGAGGACGAAACAC | 0.945
ACCGGAUGUGCUUUCGGGUCUGAUGAGUGCGUGAGGACGAAACAG | 0.496
ACCGGAUGUGCUUUCCGGUCUGACGAGUCCGUGAGAACGAAACAG | 0.56
ACGGGAUGUGCUUUCCGGUCUGAUGAGUCCGUCAGGACGAAACAG | 0.468
ACCGGAUGUGCUUUCCGGUCUGAGGAGUCCGUGAUGACGAAACAG | 0.907
ACCGGAUGUGCUUUCCGGGCUGAUGAGUCCGUGAGGACAAAACAG | 0.378
ACCGGAUGUGCUGACCGGUCUGAUGAGUCCGUGAGGACGAAACAG | 0.428
ACCGGAUGUGCUUUCCGGUCUGAUGAGCCCGUGAGGACGAUACAG | 0.319
ACCGGAUAUGCUUUCCGGUCUGAUGAGUCCGAGAGGACGAAACAG | 1.14
ACCGGAUAUGCUUUUCGGUCUGAUGAGUCCGUGAGGACGAAACAG | 0.835

Variant | self-cleavage
ACCGGAUGUGCUUUCCCGCCUGAUGAGUCCGUGAGGACGAAACAG | 0.332
ACCGGAUGUACUUUGCGGUCUGAUGAGUCCGUGAGGACGAAACAG | 0.899
ACUGGUUGUGCUUUCCGGUCUGAUGAGUCCGUGAGGACGAAACAG | 0.609
ACCGGAUGUGCUUGCCGGUCUGAUGAGUCCGAGAGGACGAAACAG | 0.811
ACCGGACGUUCUUUCCGGUCUGAUGAGUCCGUGAGGACGAAACAG | 1.12
ACCGCAUGUGCUUUCCGGUCUGAUGAGUUCGUGAGGACGAAACAG | 0.504
ACCGUAUGUGCUUUCCGGUCUAAUGAGUCCGUGAGGACGAAACAG | 0.269
ACCGGAUGUGCUUUCCGGUCUGAUGAGUCAGUGAGGACGACACAG | 0.423
ACCGGAUGUGCUUUCCGGUCUGAUGGGUCGGUGAGGACGAAACAG | 0.245
ACCGGAUGUGCUUUCCGGUCUGAUGAGUCCGUGAGGACUAAACCG | 0.417
ACCGGAUGUGCUUUCCAGUCUGAUGAGUCCGUGUGGACGAAACAG | 0.613
ACCGGAAGUGCUUUCCGAUCUGAUGAGUCCGUGAGGACGAAACAG | 0.539
ACCGGAUGUGCUUUCCGGUCUUAUGACUCCGUGAGGACGAAACAG | 0.347
ACCGGAUGUGCUUUCCGGUCUUAUGAUUCCGUGAGGACGAAACAG | 0.273
ACCGUAUGUGAUUUCCGGUCUGAUGAGUCCGUGAGGACGAAACAG | 0.919
ACCGGAUGUGCUUUCCGGUCUGAUGAGUCCGUGAGGGCGACACAG | 0.358
ACCGGAUGUGCUUUCCGGUCUGAUGAGUCAGUGAGGACGAAACGG | 0.819
ACCCGGUGUGCUUUCCGGUCUGAUGAGUCCGUGAGGACGAAACAG | 0.358
ACCGGAUGUGCUUUACGGUCUGAUGAGUCCGUGAGGACGGAACAG | 0.415
